Assays:
c-Src SH2 = assay: SH2 binding enrichment of the phosphorylated peptide, bacterial display (enrichment ratio); higher = better substrate or ligand; peptides without Tyr show the background
Grb2 SH2 = Grb2 SH2 (UniProt P62993); assay: as above
SHP2-C SH2 = assay: as above
FGFR1 = FGFR1 (UniProt P11362); assay: phosphorylation enrichment, bacterial display (enrichment ratio); higher = better substrate or ligand; peptides without Tyr show the background
Fyn = Fyn (UniProt P06241); assay: as above
Chain of Fyn (P06241 whole entry, looked up): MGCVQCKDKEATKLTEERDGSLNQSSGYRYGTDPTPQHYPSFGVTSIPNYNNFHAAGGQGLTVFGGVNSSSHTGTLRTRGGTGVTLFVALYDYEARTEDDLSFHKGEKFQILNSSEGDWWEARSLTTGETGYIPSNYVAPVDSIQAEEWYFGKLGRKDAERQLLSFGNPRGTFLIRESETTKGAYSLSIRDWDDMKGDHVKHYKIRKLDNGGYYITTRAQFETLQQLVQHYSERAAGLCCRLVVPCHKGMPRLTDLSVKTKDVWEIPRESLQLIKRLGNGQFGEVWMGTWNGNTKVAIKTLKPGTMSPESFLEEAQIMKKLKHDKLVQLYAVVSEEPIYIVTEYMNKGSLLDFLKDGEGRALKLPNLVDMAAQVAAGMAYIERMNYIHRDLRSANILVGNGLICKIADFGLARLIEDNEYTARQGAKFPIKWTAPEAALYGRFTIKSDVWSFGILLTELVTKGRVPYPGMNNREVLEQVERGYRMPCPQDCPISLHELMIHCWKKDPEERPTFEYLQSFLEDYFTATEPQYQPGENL

EPHB1 = EPHB1 (UniProt P54762); assay: as above
Chain of EPHB1 (P54762 whole entry, looked up): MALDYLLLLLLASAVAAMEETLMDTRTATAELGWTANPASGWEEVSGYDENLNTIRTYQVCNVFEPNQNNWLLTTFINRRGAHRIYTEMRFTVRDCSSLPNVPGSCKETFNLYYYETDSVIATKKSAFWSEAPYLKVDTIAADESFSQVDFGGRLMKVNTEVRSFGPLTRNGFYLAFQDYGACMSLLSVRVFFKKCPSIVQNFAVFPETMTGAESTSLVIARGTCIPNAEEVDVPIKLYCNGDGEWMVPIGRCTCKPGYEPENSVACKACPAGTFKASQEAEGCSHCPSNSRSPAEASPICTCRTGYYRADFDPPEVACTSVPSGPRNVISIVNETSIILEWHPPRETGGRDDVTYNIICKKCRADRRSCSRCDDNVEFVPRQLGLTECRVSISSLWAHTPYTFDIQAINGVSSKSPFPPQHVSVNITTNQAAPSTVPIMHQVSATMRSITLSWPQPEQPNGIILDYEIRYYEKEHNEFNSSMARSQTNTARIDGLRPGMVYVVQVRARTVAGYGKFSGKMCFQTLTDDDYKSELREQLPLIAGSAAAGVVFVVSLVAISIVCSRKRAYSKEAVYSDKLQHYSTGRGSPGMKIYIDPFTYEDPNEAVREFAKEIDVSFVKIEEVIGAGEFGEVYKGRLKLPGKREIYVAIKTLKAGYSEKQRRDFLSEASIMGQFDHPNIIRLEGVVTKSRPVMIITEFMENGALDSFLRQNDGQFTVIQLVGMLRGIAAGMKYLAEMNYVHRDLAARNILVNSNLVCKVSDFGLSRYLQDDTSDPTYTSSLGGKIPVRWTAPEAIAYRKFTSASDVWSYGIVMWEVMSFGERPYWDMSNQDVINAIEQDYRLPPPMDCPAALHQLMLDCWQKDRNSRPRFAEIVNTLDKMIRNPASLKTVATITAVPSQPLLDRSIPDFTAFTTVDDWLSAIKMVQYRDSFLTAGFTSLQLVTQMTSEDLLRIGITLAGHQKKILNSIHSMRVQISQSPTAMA

c-Src = assay: as above
AncSZ = assay: as above
c-Abl (mouse) = assay: as above
Jak2 = Jak2 (UniProt O60674); assay: as above
Chain of Jak2 (O60674 whole entry, looked up): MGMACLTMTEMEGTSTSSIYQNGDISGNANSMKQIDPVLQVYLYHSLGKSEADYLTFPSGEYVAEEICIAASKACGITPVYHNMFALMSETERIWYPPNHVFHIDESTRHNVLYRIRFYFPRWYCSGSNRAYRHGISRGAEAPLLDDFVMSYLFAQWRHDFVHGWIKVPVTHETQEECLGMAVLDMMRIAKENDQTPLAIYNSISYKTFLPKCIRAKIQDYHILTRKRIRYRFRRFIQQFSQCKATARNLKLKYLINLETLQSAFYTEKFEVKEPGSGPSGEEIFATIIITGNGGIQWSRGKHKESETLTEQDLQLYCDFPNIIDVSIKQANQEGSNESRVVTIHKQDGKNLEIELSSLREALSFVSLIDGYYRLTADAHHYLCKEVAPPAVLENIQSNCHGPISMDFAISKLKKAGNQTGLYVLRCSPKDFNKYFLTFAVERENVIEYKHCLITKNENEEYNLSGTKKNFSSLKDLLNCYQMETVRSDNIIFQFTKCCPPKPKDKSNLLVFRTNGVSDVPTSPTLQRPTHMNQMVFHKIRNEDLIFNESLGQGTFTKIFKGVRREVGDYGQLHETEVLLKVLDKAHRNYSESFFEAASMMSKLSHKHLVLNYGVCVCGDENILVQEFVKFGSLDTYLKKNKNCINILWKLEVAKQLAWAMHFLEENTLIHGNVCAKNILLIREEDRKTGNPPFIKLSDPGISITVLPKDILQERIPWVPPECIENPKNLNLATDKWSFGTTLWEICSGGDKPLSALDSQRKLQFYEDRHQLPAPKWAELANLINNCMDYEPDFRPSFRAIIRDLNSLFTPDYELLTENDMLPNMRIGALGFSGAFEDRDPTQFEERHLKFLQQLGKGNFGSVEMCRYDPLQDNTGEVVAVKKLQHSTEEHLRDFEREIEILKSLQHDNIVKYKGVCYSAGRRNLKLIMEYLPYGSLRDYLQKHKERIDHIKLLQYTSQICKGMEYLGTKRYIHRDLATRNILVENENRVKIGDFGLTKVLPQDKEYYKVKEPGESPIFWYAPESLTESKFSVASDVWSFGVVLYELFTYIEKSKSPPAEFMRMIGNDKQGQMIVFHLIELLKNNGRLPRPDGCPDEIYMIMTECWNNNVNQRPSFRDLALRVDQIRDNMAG

EPHB2 = EPHB2 (UniProt P29323); assay: as above
Fes = Fes (UniProt P07332); assay: as above
FGFR3 = FGFR3 (UniProt P22607); assay: as above
Chain of FGFR3 (P22607 whole entry, looked up): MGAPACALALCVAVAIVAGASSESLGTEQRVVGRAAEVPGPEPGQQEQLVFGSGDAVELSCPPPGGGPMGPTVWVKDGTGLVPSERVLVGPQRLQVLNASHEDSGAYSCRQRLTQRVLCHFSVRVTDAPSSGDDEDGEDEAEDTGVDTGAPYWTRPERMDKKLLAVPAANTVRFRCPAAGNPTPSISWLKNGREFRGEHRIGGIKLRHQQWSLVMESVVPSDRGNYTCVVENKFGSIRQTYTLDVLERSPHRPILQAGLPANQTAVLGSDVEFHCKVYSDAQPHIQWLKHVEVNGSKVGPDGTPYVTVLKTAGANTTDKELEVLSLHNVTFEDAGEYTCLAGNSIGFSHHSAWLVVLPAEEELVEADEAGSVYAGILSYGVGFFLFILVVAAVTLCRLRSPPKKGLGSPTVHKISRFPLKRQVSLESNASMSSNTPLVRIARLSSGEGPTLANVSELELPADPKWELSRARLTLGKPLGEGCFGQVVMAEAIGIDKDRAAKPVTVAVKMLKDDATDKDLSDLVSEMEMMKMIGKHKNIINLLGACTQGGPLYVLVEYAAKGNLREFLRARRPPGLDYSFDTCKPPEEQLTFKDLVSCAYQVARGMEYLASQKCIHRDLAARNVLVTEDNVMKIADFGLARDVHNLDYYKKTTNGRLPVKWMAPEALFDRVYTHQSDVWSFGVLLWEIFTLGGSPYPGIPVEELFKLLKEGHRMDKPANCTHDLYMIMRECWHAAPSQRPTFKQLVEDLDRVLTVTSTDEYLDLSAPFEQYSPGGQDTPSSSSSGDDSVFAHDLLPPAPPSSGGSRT

Hck = Hck (UniProt P08631); assay: as above
Chain of Hck (P08631 whole entry, looked up): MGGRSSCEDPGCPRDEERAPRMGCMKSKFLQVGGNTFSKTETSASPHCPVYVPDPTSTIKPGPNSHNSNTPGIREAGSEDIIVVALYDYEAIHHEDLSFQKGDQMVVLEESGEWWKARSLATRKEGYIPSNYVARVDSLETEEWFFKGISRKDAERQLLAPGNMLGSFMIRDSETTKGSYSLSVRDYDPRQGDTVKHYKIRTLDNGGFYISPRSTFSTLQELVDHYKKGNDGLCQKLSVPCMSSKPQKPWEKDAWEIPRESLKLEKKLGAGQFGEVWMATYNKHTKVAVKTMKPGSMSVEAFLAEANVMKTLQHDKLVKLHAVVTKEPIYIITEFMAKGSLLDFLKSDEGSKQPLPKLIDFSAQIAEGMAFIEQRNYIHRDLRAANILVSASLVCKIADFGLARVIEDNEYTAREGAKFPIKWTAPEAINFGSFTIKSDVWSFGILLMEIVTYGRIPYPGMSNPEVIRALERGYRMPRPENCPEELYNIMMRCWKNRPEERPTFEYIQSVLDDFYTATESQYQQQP

Fer (mouse) = assay: as above
MERTK = MERTK (UniProt Q12866); assay: as above
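Throughout, for SH2 binding enrichment of the phosphorylated peptide, bacterial display: peptide library displayed on the E. coli surface as eCPX fusions, selected cells deep-sequenced, score is each peptide's frequency after selection divided by its frequency in the input.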
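Throughout, for phosphorylation enrichment, bacterial display: 11-residue human phosphosite peptides and single-mutation variants displayed on the E. coli surface, counted by deep sequencing, each peptide's frequency after selection divided by its frequency in the unselected input library; frequency after pTyr selection over input frequency; kinase dosed for 20-30% of maximal phosphorylation in three min.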

Chain of Grb2 SH2 (P62993 whole entry, looked up): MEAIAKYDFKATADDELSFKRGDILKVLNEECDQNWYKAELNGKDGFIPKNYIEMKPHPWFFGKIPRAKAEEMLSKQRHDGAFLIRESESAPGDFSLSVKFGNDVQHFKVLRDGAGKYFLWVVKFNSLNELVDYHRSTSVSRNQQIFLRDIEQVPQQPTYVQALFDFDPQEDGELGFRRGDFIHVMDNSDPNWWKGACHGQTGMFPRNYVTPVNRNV
Chain of FGFR1 (P11362 whole entry, looked up): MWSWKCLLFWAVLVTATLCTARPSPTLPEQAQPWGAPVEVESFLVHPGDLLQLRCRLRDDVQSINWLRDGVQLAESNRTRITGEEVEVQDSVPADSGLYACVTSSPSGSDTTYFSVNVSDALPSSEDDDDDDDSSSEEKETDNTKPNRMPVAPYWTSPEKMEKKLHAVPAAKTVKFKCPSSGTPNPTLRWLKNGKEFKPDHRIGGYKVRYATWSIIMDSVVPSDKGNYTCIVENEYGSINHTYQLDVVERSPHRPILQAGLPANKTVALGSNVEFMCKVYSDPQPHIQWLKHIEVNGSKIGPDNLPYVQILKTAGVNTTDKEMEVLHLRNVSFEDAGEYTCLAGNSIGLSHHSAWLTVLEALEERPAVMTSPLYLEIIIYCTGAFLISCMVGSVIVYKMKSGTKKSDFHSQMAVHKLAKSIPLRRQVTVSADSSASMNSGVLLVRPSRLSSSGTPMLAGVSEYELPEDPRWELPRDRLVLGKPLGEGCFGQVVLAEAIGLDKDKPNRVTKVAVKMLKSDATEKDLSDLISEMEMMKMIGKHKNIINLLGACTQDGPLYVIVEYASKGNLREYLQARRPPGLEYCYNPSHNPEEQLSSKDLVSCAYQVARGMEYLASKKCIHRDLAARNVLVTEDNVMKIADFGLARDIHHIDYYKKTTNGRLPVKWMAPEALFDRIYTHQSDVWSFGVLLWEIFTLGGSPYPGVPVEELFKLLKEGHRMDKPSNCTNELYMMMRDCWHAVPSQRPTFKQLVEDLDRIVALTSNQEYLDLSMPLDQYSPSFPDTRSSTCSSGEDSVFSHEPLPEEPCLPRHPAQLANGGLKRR

Row | Sequence | SH2 binding enrichment (c-Src SH2) | SH2 binding enrichment (Grb2 SH2) | SH2 binding enrichment (SHP2-C SH2) | phosphorylation enrichment (FGFR1) | phosphorylation enrichment (Fyn) | phosphorylation enrichment (EPHB1) | phosphorylation enrichment (c-Src) | phosphorylation enrichment (AncSZ) | phosphorylation enrichment (c-Abl (mouse)) | phosphorylation enrichment (Jak2) | phosphorylation enrichment (EPHB2) | phosphorylation enrichment (Fes) | phosphorylation enrichment (FGFR3) | phosphorylation enrichment (Hck) | phosphorylation enrichment (Fer (mouse)) | phosphorylation enrichment (MERTK)
1 | PYRQWYESHYA [RPS8_Y113] | 1.59 | 1.33 | 1.09 | 1.36 | 1.09 | 2.82 | 2.35 | 1.61 | 1.19 | 1.37 | 2.27 | 1.69 | 1.1 | 1.3 | 10.9 | 1.86
2 | PYYTSYPPSPD [GDAP2_Y491] | 1.28 | 0.728 | 1.01 | 4.8 | 5.09 | 3.43 | 6.44 | 1.38 | 1.67 | 3.58 | 5.06 | 1.03 | 3.57 | 2.39 | 0.676 | 9.55
3 | QADVIYVNTQL [MERTK_Y872] | 0.608 | 1.26 | 0.699 | 2.29 | 2.13 | 2.52 | 1.27 | 1.61 | 1 | 1.18 | 0.962 | 1.43 | 1.4 | 2.19 | 8.63 | 0.925
4 | QAEELYFGKMG [YES1_Y159_W158L] | 0.483 | 0.795 | 0.455 | 1.49 | 3.61 | 0.861 | 3.55 | 2.15 | 2.25 | 1.14 | 0.837 | 1.55 | 1.55 | 5.82 | 0.747 | 1.87
5 | QAKRKYQEASK [FES_Y156] | 0.602 | 1.16 | 0.701 | 0.495 | 0.544 | 0.342 | 0.488 | 0.46 | 0.491 | 0.429 | 0.459 | 0.772 | 0.441 | 0.489 | 0.481 | 0.418
6 | QAPPVYLDVLG [NTRK1_Y791] | 0.723 | 1.03 | 0.765 | 2.33 | 1.01 | 4.2 | 0.727 | 1.17 | 0.954 | 1.16 | 1.34 | 1.45 | 1.49 | 1.02 | 0.69 | 0.901
7 | QDEHGYISLCF [HSPB1_Y133_R136L] | 0.485 | 0.637 | 0.579 | 1.48 | 1.05 | 1.56 | 1.16 | 2.22 | 2.42 | 3.37 | 1.22 | 3.71 | 2.09 | 1.17 | 1.08 | 1.36
8 | QDTSRYTVCNL [BIRC3_Y245_S248C] | 1.29 | 0.79 | 0.78 | 0.418 | 0.546 | 0.528 | 0.439 | 0.745 | 0.854 | 0.741 | 0.439 | 0.815 | 0.469 | 0.359 | 0.557 | 0.348
9 | QEGPEYWDRET [HLA-A_Y83_Q86R] | 0.533 | 0.787 | 0.539 | 0.85 | 0.692 | 1.16 | 0.814 | 2.03 | 1.44 | 2.21 | 0.946 | 2.45 | 1.08 | 0.871 | 0.92 | 0.924
10 | QEIATYRPLLE [KRT14_Y415_R417P] | 0.422 | 0.647 | 0.64 | 0.78 | 0.961 | 0.791 | 0.705 | 1.02 | 0.922 | 1.04 | 0.65 | 1.24 | 0.834 | 0.674 | 0.643 | 0.504
11 | QEIATYRRLRE [KRT17_Y384_L388R] | 0.441 | 0.75 | 0.478 | 0.77 | 0.61 | 0.64 | 0.537 | 0.734 | 0.597 | 0.558 | 0.557 | 0.936 | 0.933 | 0.779 | 0.508 | 0.798
12 | QELRRYLKSSV [MICA_Y194_G198S] | 0.426 | 0.732 | 0.502 | 0.44 | 0.36 | 0.322 | 0.298 | 0.543 | 0.349 | 0.457 | 0.349 | 0.6 | 0.483 | 0.653 | 0.292 | 0.213
13 | QEMMEYRHQIQ [DES_Y324] | 0.485 | 1.22 | 0.579 | 0.677 | 0.559 | 0.93 | 1.12 | 2.04 | 1.86 | 2.03 | 0.833 | 2.13 | 1.04 | 0.902 | 0.303 | 0.762
14 | QFFQSYFNNNF [ZNF236_Y644] | 0.755 | 1.57 | 1.02 | 0.643 | 0.682 | 0.981 | 0.549 | 0.766 | 0.455 | 1.6 | 0.29 | 1.14 | 0.841 | 0.532 | 0.37 | 0.627
15 | QFKDKYLAKHN [CASK_Y712_YF] | 0.914 | 0.83 | 1.3 | 0.383 | 0.266 | 0.53 | 0.34 | 0.519 | 0.35 | 0.788 | 0.268 | 0.467 | 0.298 | 0.384 | 0.433 | 0.403
16 | QFPDVYAREEV [CRX_Y67_YF] | 0.658 | 0.854 | 0.776 | 0.649 | 0.624 | 0.514 | 0.672 | 1.06 | 0.68 | 1.53 | 0.489 | 1.43 | 0.693 | 0.645 | 0.879 | 0.603
17 | QGCSIYKDYYR [PLA2G2D_Y82] | 0.738 | 1.02 | 0.813 | 1.27 | 3.56 | 1.68 | 4.85 | 1.29 | 0.731 | 1.08 | 0.734 | 1.47 | 1.57 | 2.92 | 0.724 | 0.67

Row | Sequence | SH2 binding enrichment (c-Src SH2) | SH2 binding enrichment (Grb2 SH2) | SH2 binding enrichment (SHP2-C SH2) | phosphorylation enrichment (FGFR1) | phosphorylation enrichment (Fyn) | phosphorylation enrichment (EPHB1) | phosphorylation enrichment (c-Src) | phosphorylation enrichment (AncSZ) | phosphorylation enrichment (c-Abl (mouse)) | phosphorylation enrichment (Jak2) | phosphorylation enrichment (EPHB2) | phosphorylation enrichment (Fes) | phosphorylation enrichment (FGFR3) | phosphorylation enrichment (Hck) | phosphorylation enrichment (Fer (mouse)) | phosphorylation enrichment (MERTK)
18 | QGLRLYRPHLA [BTK_Y617] | 0.988 | 1.4 | 1.04 | 0.501 | 0.461 | 0.515 | 0.438 | 1.16 | 0.775 | 1.15 | 0.697 | 1.12 | 0.76 | 0.437 | 0.542 | 0.382
19 | QGRQTYLPQPA [DDR2_Y813] | 0.553 | 0.627 | 0.44 | 0.552 | 0.495 | 0.527 | 0.477 | 0.752 | 0.844 | 0.778 | 0.473 | 0.821 | 0.485 | 0.713 | 0.408 | 0.433
20 | QLCVSYPGGFT [PROS1_Y259_N258S_YF] | 0.535 | 0.711 | 0.687 | 0.496 | 0.663 | 0.481 | 0.658 | 1.12 | 1.24 | 1.45 | 0.546 | 1.47 | 0.892 | 0.682 | 0.775 | 0.578
21 | QMRLRYLAAEE [CEP120_Y884] | 0.445 | 0.664 | 0.982 | 0.931 | 0.845 | 0.741 | 0.647 | 1.11 | 0.916 | 1.3 | 0.643 | 1.41 | 0.874 | 0.776 | 0.563 | 0.423
22 | QMVGMYASFYM [AVPR2_Y124_S127F] | 0.538 | 0.784 | 0.842 | 0.45 | 7.85 | 2.49 | 6.92 | 1.35 | 3.61 | 1.79 | 1.92 | 1.65 | 1 | 5.46 | 3.65 | 4.41
23 | QPSPSYDSSRG [TCF12_Y70] | 0.393 | 0.773 | 0.733 | 0.561 | 0.623 | 0.534 | 0.482 | 0.68 | 0.521 | 0.455 | 0.626 | 0.661 | 0.557 | 0.553 | 0.457 | 0.414
24 | QQLQGYVPSNY [FRK_Y99_I100V] | 0.562 | 0.775 | 0.604 | 0.458 | 0.486 | 0.552 | 0.413 | 0.554 | 0.64 | 0.822 | 0.36 | 0.874 | 0.733 | 0.537 | 0.45 | 0.396
25 | QRALLYEDTLY [UNC13D_Y56_A59T] | 0.885 | 0.62 | 0.537 | 0.648 | 3.98 | 15.2 | 3.24 | 1.54 | 0.819 | 0.942 | 12.5 | 2.2 | 1.02 | 4.67 | 12.1 | 6
26 | QRRLVYYEGGA [RYR1_Y245] | 1.06 | 1.17 | 0.803 | 0.497 | 0.369 | 0.402 | 0.583 | 0.788 | 0.728 | 0.682 | 0.606 | 1.11 | 0.602 | 0.421 | 0.536 | 1.15
27 | QSVEPYTKQQL [STAT3_Y640] | 0.528 | 0.978 | 0.649 | 0.553 | 0.536 | 0.614 | 0.626 | 0.715 | 0.81 | 0.755 | 0.695 | 0.783 | 0.558 | 0.641 | 0.543 | 0.709
28 | QTENKYVSVSG [EIF2AK3_Y565_D566V] | 0.828 | 0.707 | 2.59 | 0.527 | 0.627 | 0.808 | 0.693 | 0.61 | 0.938 | 0.754 | 0.683 | 1.51 | 0.581 | 0.85 | 0.626 | 0.548
29 | QTLEAYIRWNK [SPAST_Y604] | 0.919 | 1.26 | 1.61 | 0.615 | 0.452 | 0.703 | 0.488 | 1.2 | 0.913 | 1.09 | 0.588 | 1.44 | 0.935 | 0.472 | 0.62 | 0.45
30 | RAMPVYEKAEH [TP63_Y231_K232E] | 2.1 | 1.07 | 0.574 | 0.493 | 0.867 | 0.654 | 0.776 | 0.664 | 0.576 | 1.03 | 0.834 | 0.598 | 0.545 | 1.02 | 1.79 | 0.453
31 | RASGIYYVPKG [APBB1IP_Y340] | 0.955 | 1.1 | 0.767 | 5.75 | 15.1 | 16.6 | 8.24 | 1.39 | 43.9 | 4.09 | 9.84 | 1.24 | 5.79 | 15.1 | 1.82 | 19.8
32 | RDMNAYIRPSP [MMAA_Y207] | 0.581 | 0.804 | 0.693 | 0.804 | 1.01 | 0.444 | 0.971 | 1.03 | 1.32 | 1.57 | 1.02 | 1.24 | 1.02 | 0.8 | 1.19 | 1.02
33 | REENGYNTYAS [FGF10_Y161_I156R] | 0.509 | 0.673 | 1.11 | 0.761 | 1.21 | 0.856 | 0.9 | 1.22 | 1.25 | 1.27 | 0.962 | 1.73 | 1.03 | 1.3 | 0.559 | 0.568

From the supplement of paper PMC10065799, “High-throughput profiling of sequence recognition by tyrosine kinases and SH2 domains using bacterial peptide display” (eLife, 2023)
